From the supplement of paper PMC10567573

B1: KCNA3 (parent)
chain: YQSGGRIRRPVNVPIDIFSEEIRF

Variants of: B1
Assay: protein stability index of a GFP-peptide fusion (GPS, HEK-293T) (PSI 1-6); higher = more stable
Details: c terminus: a fixed tail appended
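Also: lentivirally expressed fusions sorted by FACS into six bins by GFP to DsRed ratio, PSI derived from sequencing read proportions per bin multiplied by bin number.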

| Variant | protein stability index |
| --- | --- |
| YQSGGRIRKPVNVPIDIFSEEIRF [R9K] | 1.78 |
| YQSGGRIRHPVNVPIDIFSEEIRF [R9H] | 3.44 |
| YQSGGRIRPPVNVPIDIFSEEIRF [R9P] | 2.26 |
| YQSGGRIRTPVNVPIDIFSEEIRF [R9T] | 2.48 |
| YQSGGRIRAPVNVPIDIFSEEIRF [R9A] | 2.45 |
| YQSGGRIRGPVNVPIDIFSEEIRF [R9G] | 2.23 |
| YQSGGRIRSPVNVPIDIFSEEIRF [R9S] | 2.06 |
| YQSGGRIRRPVNVPIDHFSEEIRF [I17H] | 1.91 |
| YQSGGRIRRPVNVPIDSFSEEIRF [I17S] | 2.33 |
| YQSGGRIRRPVNVPIDDFSEEIRF [I17D] | 2.34 |
| YQSGGRIRRPVNVPIDRFSEEIRF [I17R] | 2.48 |
| YQSGGRIRRPVNVPIDMFSEEIRF [I17M] | 2.21 |
| YQSGGRIRRPVNVPIDNFSEEIRF [I17N] | 2.74 |
| YQSGGRIRRPVNVPIDQFSEEIRF [I17Q] | 1.89 |
| YQSGGRIRRPVNVPIDKFSEEIRF [I17K] | 2.05 |
| YQSGGRIRRPVNVPIDCFSEEIRF [I17C] | 2.48 |
| YQSGGRIRRPVNVPIDEFSEEIRF [I17E] | 3.04 |
| YQSGGRIRRPVNVPIDPFSEEIRF [I17P] | 3.32 |
| YQSGGRIRRPVNVPIDTFSEEIRF [I17T] | 1.97 |
| YQSGGRIRRPVNVPIDGFSEEIRF [I17G] | 2.19 |
| YQSGGRIRRPVNVPIDFFSEEIRF [I17F] | 1.76 |
| YQSGGRIRRPVNVPIDVFSEEIRF [I17V] | 2.48 |
| YQSGGRIRRPVNVPIDAFSEEIRF [I17A] | 2.85 |
| YQSGGRIRRPVNVPIDYFSEEIRF [I17Y] | 2.79 |

| Variant | protein stability index |
| --- | --- |
| YQSGGRIRRPVNVPIDWFSEEIRF [I17W] | 1.23 |
| YQSGGRIRRPVNVPIDLFSEEIRF [I17L] | 1.86 |
| YQSGGRIRRPVNVPIDIMSEEIRF [F18M] | 2.35 |
| YQSGGRIRRPVNVPIDILSEEIRF [F18L] | 2.63 |
| YQSGGRIRRPVNVPIDIQSEEIRF [F18Q] | 1.81 |
| YQSGGRIRRPVNVPIDIASEEIRF [F18A] | 2.68 |
| YQSGGRIRRPVNVPIDINSEEIRF [F18N] | 3.17 |
| YQSGGRIRRPVNVPIDIHSEEIRF [F18H] | 2.29 |
| YQSGGRIRRPVNVPIDIRSEEIRF [F18R] | 2.11 |
| YQSGGRIRRPVNVPIDIKSEEIRF [F18K] | 1.99 |
| YQSGGRIRRPVNVPIDIESEEIRF [F18E] | 3.23 |
| YQSGGRIRRPVNVPIDIPSEEIRF [F18P] | 2.55 |
| YQSGGRIRRPVNVPIDIGSEEIRF [F18G] | 2.49 |
| YQSGGRIRRPVNVPIDIDSEEIRF [F18D] | 2.3 |
| YQSGGRIRRPVNVPIDIISEEIRF [F18I] | 1.49 |
| YQSGGRIRRPVNVPIDISSEEIRF [F18S] | 2.8 |
| YQSGGRIRRPVNVPIDICSEEIRF [F18C] | 2.36 |
| YQSGGRIRRPVNRPIDIFSEEIRF [V13R] | 2.01 |
| YQSGGRIRRPVNCPIDIFSEEIRF [V13C] | 1.78 |
| YQSGGRIRRPVNIPIDIFSEEIRF [V13I] | 2.43 |
| YQSGGRIRRPVNKPIDIFSEEIRF [V13K] | 2.36 |
| YQSGGRIRRPVNFPIDIFSEEIRF [V13F] | 1.86 |
| YQSGGRIRRPVNQPIDIFSEEIRF [V13Q] | 2.42 |
| YQSGGRIRRPVNEPIDIFSEEIRF [V13E] | 2.14 |

| Variant | protein stability index |
| --- | --- |
| YQSGGRIRRPVNGPIDIFSEEIRF [V13G] | 2.31 |
| YQSGGRIRRPVNHPIDIFSEEIRF [V13H] | 2.19 |
| YQSGGRIRRPVNTPIDIFSEEIRF [V13T] | 1.82 |
| YQSGGRIRRPVNSPIDIFSEEIRF [V13S] | 2.11 |
| YQSGGRIRRPVNWPIDIFSEEIRF [V13W] | 2.01 |
| YQSGGRIRRPVNPPIDIFSEEIRF [V13P] | 1.86 |
| YQSGGRIRRPVNMPIDIFSEEIRF [V13M] | 2.25 |
| YQSGGRIRRPVNLPIDIFSEEIRF [V13L] | 1.95 |
| YQSGGRIRRPVNDPIDIFSEEIRF [V13D] | 2.14 |
| YQSGGRIRRPVNNPIDIFSEEIRF [V13N] | 2.13 |
| YQSGGRIRRPVNAPIDIFSEEIRF [V13A] | 1.88 |
| YQSGGRIRRPVNYPIDIFSEEIRF [V13Y] | 1.69 |
| YQSGGRIRRPVNVLIDIFSEEIRF [P14L] | 2.85 |
| YQSGGRIRRPVNVEIDIFSEEIRF [P14E] | 1.43 |
| YQSGGRIRRPVNVWIDIFSEEIRF [P14W] | 2.98 |
| YQSGGRIRRPVNVQIDIFSEEIRF [P14Q] | 3.61 |
| YQSGGRIRRPVNVKIDIFSEEIRF [P14K] | 1.78 |
| YQSGGRIRRPVNVGIDIFSEEIRF [P14G] | 1.9 |
| YQSGGRIRRPVNVMIDIFSEEIRF [P14M] | 3.25 |
| YQSGGRIRRPVNVAIDIFSEEIRF [P14A] | 1.81 |
| YQSGGRIRRPVNVVIDIFSEEIRF [P14V] | 1.61 |
| YQSGGRIRRPVNVTIDIFSEEIRF [P14T] | 1.81 |
| YQSGGRIRRPVNVHIDIFSEEIRF [P14H] | 2.02 |
| YQSGGRIRRPVNVDIDIFSEEIRF [P14D] | 1.85 |

| Variant | protein stability index |
| --- | --- |
| YQSGGRIRRPVNVCIDIFSEEIRF [P14C] | 1.33 |
| YQSGGRIRRPVNVIIDIFSEEIRF [P14I] | 2.88 |
| YQSGGRIRRPVNVSIDIFSEEIRF [P14S] | 1.42 |
| YQSGGRIRRPVNVFIDIFSEEIRF [P14F] | 1.07 |
| YQSGGRIRRPRNVPIDIFSEEIRF [V11R] | 2.37 |
| YQSGGRIRRPGNVPIDIFSEEIRF [V11G] | 1.79 |
| YQSGGRIRRPPNVPIDIFSEEIRF [V11P] | 1.83 |
| YQSGGRIRRPMNVPIDIFSEEIRF [V11M] | 2.01 |
| YQSGGRIRRPENVPIDIFSEEIRF [V11E] | 3.13 |
| YQSGGRIRRPDNVPIDIFSEEIRF [V11D] | 1.69 |
| YQSGGRIRRPQNVPIDIFSEEIRF [V11Q] | 2.03 |
| YQSGGRIRRPLNVPIDIFSEEIRF [V11L] | 1.44 |
| YQSGGRIRRPTNVPIDIFSEEIRF [V11T] | 1.98 |
| YQSGGRIRRPNNVPIDIFSEEIRF [V11N] | 2.42 |
| YQSGGRIRRPKNVPIDIFSEEIRF [V11K] | 1.85 |
| YQSGGRIRRPHNVPIDIFSEEIRF [V11H] | 1.66 |
| YQSGGRIRRPSNVPIDIFSEEIRF [V11S] | 1.74 |
| YQSGGRIRRPYNVPIDIFSEEIRF [V11Y] | 2.18 |
| YQSGGRIRRPANVPIDIFSEEIRF [V11A] | 2.49 |
| YQSGGRIRRPINVPIDIFSEEIRF [V11I] | 1.7 |
| YQSGGRIRRPFNVPIDIFSEEIRF [V11F] | 2.02 |
| YQSGGRIRRPCNVPIDIFSEEIRF [V11C] | 2.39 |
